Data from IntAct's records for PubMed 20890284.

B1: Hematopoietic cell signal transducer (Homo sapiens), Q9UBK5 (parent)
chain: MIHLGHILFLLLLPVAAAQTTPGERSSLPAFYPGTSGSCSGCGSLSLPLLAGLVAADAVASLLIVGAVFLCARPRRSPAQEDGKVYINMPGRG
B2: TYRO protein tyrosine kinase-binding protein (Homo sapiens), O43914 (parent)
chain: MGGLEPCSRLLLLPLLLAVSGLRPVQAQAQSDCSCSTVSPGVLAGIVMGDLVLTVLIALAVYFLGRLVPRGRGAAEAATRKQRITETESPYQELQGQRSDVYSDLNTQRPYYK

How the values were obtained:
[1] = variants of: B1; details: with nkg2d_human KLRK1, P26718
[2] = variants of: B2; details: with nkg2c_human KLRC2, P26717
[3] = variants of: B2; details: with ki2s3_human KIR2DS3, Q14952
ki2s3_human KIR2DS3, Q14952, sequence (Q14952 whole entry): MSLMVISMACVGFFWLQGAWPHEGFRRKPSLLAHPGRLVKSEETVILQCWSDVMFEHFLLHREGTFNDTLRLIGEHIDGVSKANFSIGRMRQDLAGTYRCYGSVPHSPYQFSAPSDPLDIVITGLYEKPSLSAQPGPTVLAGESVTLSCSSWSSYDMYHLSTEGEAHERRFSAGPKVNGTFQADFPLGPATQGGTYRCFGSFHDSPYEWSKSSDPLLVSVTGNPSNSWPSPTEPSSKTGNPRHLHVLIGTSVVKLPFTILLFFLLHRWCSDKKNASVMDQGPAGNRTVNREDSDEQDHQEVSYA

nkg2c_human KLRC2, P26717, sequence (P26717 whole entry): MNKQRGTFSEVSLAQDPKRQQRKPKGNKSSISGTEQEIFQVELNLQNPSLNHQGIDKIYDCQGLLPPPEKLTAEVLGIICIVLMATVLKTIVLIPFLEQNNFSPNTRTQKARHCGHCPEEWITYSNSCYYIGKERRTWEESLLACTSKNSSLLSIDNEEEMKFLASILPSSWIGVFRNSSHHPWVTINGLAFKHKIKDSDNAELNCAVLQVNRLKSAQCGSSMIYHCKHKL
nkg2d_human KLRK1, P26718, sequence (P26718 whole entry): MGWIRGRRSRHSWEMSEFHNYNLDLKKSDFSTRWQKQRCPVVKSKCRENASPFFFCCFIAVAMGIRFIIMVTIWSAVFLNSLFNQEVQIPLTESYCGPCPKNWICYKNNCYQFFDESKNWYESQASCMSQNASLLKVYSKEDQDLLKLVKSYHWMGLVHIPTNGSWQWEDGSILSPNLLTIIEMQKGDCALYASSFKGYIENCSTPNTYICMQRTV

Row | Variant | effect of a mutation on the interaction [1] | effect of a mutation on the interaction [2] | effect of a mutation on the interaction [3]
1 | MIHLGHILFLLLLPVAAAQTTPGERSSLPAFYPGTSGSCSGCGSLSLPLLAGLVAAAAVASLLIVGAVFLCARPRRSPAQEDGKVYINMPGRG [D57A] | decreasing interaction |  | 
2 | A58F |  | decreasing interaction | decreasing interaction
3 | T54A |  | decreasing interaction | decreasing interaction
